From patent publication US11312773B2, “Anti-PD-L1 antibody” (Fuso Pharmaceutical Industries, Ltd., priority 2016, dated 2022)

What was measured:
[1] = tested on: ovine PD-1/PD-L1 binding; experiment: Ovine PD-1/PD-L1 binding inhibition test (PD-1-EGFP COS-7 cells and PD-L1-Ig); conditions: antibody 0-50 μg/ml, ovine PD-L1-Ig 1 μg/ml
Description: Using ovine PD-1-EGFP expressing COS-7 cells and ovine PD-L1-Ig recombinant protein, or porcine PD-1-EGFP expressing COS-7 cells and porcine PD-L1-Ig recombinant protein, inhibition of ovine or porcine PD-1/PD-L1 binding by rat anti-bovine PD-L1 antibody […] was tested. […] Subsequently, the antibody 4G12 was reacted with 2×10^5 ovine PD-1-EGFP expressing COS-7 cells or porcine PD-1-EGFP expressing COS-7 cells at 37° C. for 30 min. After washing, ovine PD-L1-Ig or porcine PD-L1-Ig bound to cell surfaces was detected with Alexa Fluor 647-labeled anti-rabbit IgG (H+L) goat F(ab′)2 (Life Technologies). For analysis, FACS Verse (BD Biosciences) was used. As a negative control antibody, rat IgG2a (κ) isotype control (BD Biosciences) was used. Taking the proportion of PD-L1-Ig bound cells without antibody addition as 100%, the proportion of PD-L1-Ig bound cells at each antibody concentration was shown as relative value.

[2] = tested on: canine PD-L1; experiment: Flow cytometry cross-reactivity with canine PD-L1 expressing cells; format: binding
Description: COS-7 cells were subcultured at a density of 5×10^4 cells/cm^2 in 6-well plates, and then cultured overnight in RPMI 1640 medium containing 10% inactivated fetal bovine serum and 0.01% L-glutamine at 37° C. in the presence of 5% CO2. The pEGFP-N2-cPD-1, pEGFP-N2-cPD-L1 or pEGFP-N2 (negative control) was introduced into COS-7 cells at 0.4 μg/cm^2 using Lipofectamine 2000 (Invitrogen). The cells were cultured for 48 hours (cPD-1-EGFP expressing cell and cPD-L1-EGFP expressing cell). In order to confirm the expression of canine PD-1 and PD-L1 in the thus prepared expressing cells, intracellular localization of enhanced green fluorescent protein (EGFP) was visualized with an inverted confocal laser microscope LSM700 (ZEISS) (Maekawa N, Konnai S, Ikebuchi R. Okagawa T, Adachi M, Takagi S, Kagawa Y. Nakajima C, Suzuki Y, Murata S, Ohashi K. PLoS One. 2014 Jun. 10; 9(6):e98415).
In order to identify rat anti-bovine PD-L1 monoclonal antibody showing cross-reactivity with canine PD-L1, flow cytometry was performed using the anti-bovine PD-L1 antibody prepared in 2.1 above. The anti-bovine PD-L1 antibody (10 μg/ml) was reacted with 2×10^5-1×10^6 cells at room temperature for 30 min. After washing, the anti-bovine PD-L1 antibody was detected with allophycocyanine-labeled anti-rat Ig goat antibody (Beckman Coulter). FACS Verse (Becton, Dickinson and Company) was used for analysis. […]

B1: 4G12: rat anti-bovine PD-L1 monoclonal antibody; VL SEQ ID NO: 1, VH SEQ ID NO: 2 (antibody, listed as Rattus norvegicus, V domains shown)
VH: MGWSQIILFLVAAATCVHSQVQLQQSGAELVKPGSSVKISCKASGYTFTSNFMHWVKQQPGNGLEWIGWIYPEYGNTKYNQKFDGKATLTADKSSSTAYMQLSSLTSEDSAVYFCASEEAVISLVYWGQGTLVTVSS
VL: MESQTHVLISLLLSVSGTYGDIAITQSPSSVAVSVGETVTLSCKSSQSLLYSENQKDYLGWYQQKPGQTPKPLIYWATNRHTGVPDRFTGSGSGTDFTLIISSVQAEDLADYYCGQYLVYPFTFGPGTKLELK
[1]
  Inhibition of ovine PD-1/PD-L1 binding: capable of inhibiting
[2]
  Cross-reactivity with / binding to canine PD-L1: showed cross-reaction with canine PD-L1
